Test [1] deals with HIV-1 CA (capsid protein) M68C/E212C (HIV-1). The experiment in a line: cross-linking; spontaneous disulfide crosslinking of engineered cysteines in virions; viruses pelleted through 20% sucrose (100,000 x g, 30 min), dissolved in SDS sample buffer without beta-mercaptoethanol, 95°C 5 min, SDS-PAGE, immunoblot with rabbit polyclonal anti-CA antibody.
The target of test [2] is HIV-1 CA (capsid protein) Q63C/Y169C (HIV-1). Described as above.

Usually stoichiometry N stands for a count of units in the complex or per binding partner. In test [1], “HIV-1 CA (capsid protein) M68C/E212C (natural protein)” returned a stoichiometry N of 6.

In test [2], “HIV-1 CA (capsid protein) Q63C/Y169C (natural protein)” displayed a stoichiometry N of 6.

Source of the values: PMC3623829.
